Patent US20060029546A1, “Materials and methods for identifying anti-schizophrenic agents” (deCODE Genetics, Inc., priority 2004, published 2006)

Columns and labels:
NR2B = NR2B Tyr1472 phosphorylation in differentiated BE(2)-M17 neuroblastoma cells; type: cell-based, human; details: stimulation for 10 minutes
Method: (§1) Studies were carried out to determine if NRG1 signaling, mediated by activation of Src-family kinases, results in changes in the phosphorylation state of regulatory tyrosine residues on NR2B. BE(2)-M 17 human neuroblastoma cells (ECACC No. 95011816) have a neuron-like appearance after differentiation for 72 hours in the presence of 10 μM retinoic acid (RA; Sigma, St. Louis, Mo.) (Hanada et al., Can. Res. 53: 4978-4986, 1993). […] As RA differentiation induces NR2B, but not NR2A, expression, it was expected that the functional NMDA receptor channels expressed in these cells comprised of NR1 and NR2B subunits. Stimulation of differentiated BE(2)-M17 cells with NRG1 for 10 minutes increased ErbB4 tyrosine phosphorylation (FIG. 2), increased Fyn/Src Tyr420 phosphorylation (indicative of increased Src-family kinase activity), and increased Pyk2 Tyr402 phosphorylation. Pyk2 Tyr402 is an auto-phosphorylation site involved in Src-family kinase recruitment (Dikic et al., Nature 383: 547-550, 1996). In addition, a coincident increase in NR2B Tyr1472 phosphorylation was also observed (FIG. 2). Thus, NRG1 signaling through ErbB4 modulates NR2B tyrosine phosphorylation in neuroblastoma cells.

MAPK p44/42 = MAPK p44/42 activation in HEK293 cells stably expressing ErbB4 and Fyn-V5; type: cell-based; details: 7.2 nM NRG1 for 10 minutes
Fyn [1] = test: Fyn kinase activity after NRG1 stimulation of cells; type: cell-based
Method: To test if the observed increase in Fyn Tyr420 phosphorylation was associated with enhanced catalytic activity, Fyn kinase activity was measured after NRG1 stimulation. Fyn kinase activity was increased within 5 minutes of NRG1 stimulation, reached maximum activity after 7 minutes, and returned to pre-stimulation levels within 15 minutes.

Pyk2 = Pyk2 Tyr402 phosphorylation in differentiated BE(2)-M17 neuroblastoma cells; type: cell-based, human; details: stimulation for 10 minutes
Method: as §1

[2] = tested on: MAPK pathway (serum response element luciferase reporter); test: SRE-luciferase reporter gene assay in CHO-K1 cells expressing ErbB4 or ErbB4 and Fyn; type: cell-based
Method: CHO-K1 cells expressing only ErbB4 were constructed, and subsequently a subclone co-expressing Fyn was identified. The parental ErbB4 expressing cell line and the subclone co-expressing ErbB4 and Fyn continued to express similar levels of ErbB4 as shown by Western blot. The cells also contained a reporter gene sensitive to MAPK pathway activation, the luciferase gene under the control of a promoter containing a serum response element (SRE). The cells were activated for 4 hours with 0-57.6 nM and the luciferase assay was performed using the Dual-Luciferase Reported assay system (Promega, Madison, Wis.) according to the manufacturer's instructions. Induction of the luciferase reporter gene by NRG1 was amplified two-fold (p<0.05) in cells co-expressing ErbB4 and Fyn as compared to cells expressing only ErbB4. No significant differences in baseline luciferase activity or in NRG1 EC50 (˜1 nM) were found between the two cell lines.

[3] = tested on: NMDA receptor NR2B subunit; test: NR2B tyrosine phosphorylation in SK-N-BE(2)-M17 cells grown with retinoic acid; type: cell-based; details: immunoprecipitation, anti-phosphotyrosine Western blot
Method: To determine if D150838 modulates tyrosine phosphorylation of the NMDA receptor, SK-N-BE(2)-M17 cells were grown for 72 house in the presence of retinoic acid to induce expression of the NMDA receptor NR2B subunit. The cells were contacted with NRG1 or D150838, the NR2B subunit was immunoprecipitated, and the level of tyrosine phosphorylation was detected by Western blot analysis with an anti-phosphotyrosine antibody. […] Phosphorylation of tyrosine residue 1472 was detected after exposure to D150838.

Fyn/Src = Fyn/Src Tyr420 phosphorylation in differentiated BE(2)-M17 neuroblastoma cells; type: cell-based, human; details: stimulation for 10 minutes
Method: as §1

ErbB4 [4] = molecular target: T1, ErbB4 (Homo sapiens, UniProt Q15303); test: ErbB4 tyrosine phosphorylation in differentiated BE(2)-M17 neuroblastoma cells; type: cell-based; details: stimulation for 10 minutes
T1 construct: host or cells: BE(2)-M17 neuroblastoma, retinoic-acid differentiated
Method: as §1

ErbB4 [5] = test: ErbB4 tyrosine phosphorylation in HEK293 cells (Western blot); type: cell-based; details: HEK293 cells expressing ErbB4 and Fyn-V5, 7.2 nM NRG1 for 10 minutes
Method: (§2) To determine whether NRG1-induced activation of ErbB4 leads to Fyn phosphorylation, NRG1 exposure of HEK293 cells stably expressing ErbB4 and Fyn-V5 were activated with 7.2 nM NRG1 (R&D Systems; Minneapolis, Minn.) for 10 minutes and lysed using RIPA buffer. […] There was no change in Fyn Tyr531 phosphorylation. […] Fyn is activated either by dephophorylation of Tyr531 with loss of the SH2 domain interaction, or through displacement of the SH2 domain by a second tyrosine phosphorylated binding partner allowing auto-phosphorylation on the Fyn activation loop residue Tyr420. Alternatively, Fyn can be phosphorylated on Tyr420 and activated directly by a second kinase. Thus, the NRG1-stimulated increase in Fyn Tyr420 phosphorylation may be through stimulation of Fyn auto-phosphorylation, through phosphorylation of Fyn by ErbB4, or through phosphorylation of Fyn by an ErbB4 activated tyrosine kinase other than Fyn.
Thus, NRG1-induced ErbB4 phosphorylation under conditions in which Fyn and related Src-family kinases were inhibited by PP2 (selective Src-family kinase inhibitor described above). […] This may result in the creation of additional SH2 domain docking sites, thus leading to further activation of Fyn as part of a positive feedback mechanism involving NRG1, ErbB4 and Src-family kinases.

Fyn [6] = test: Fyn phosphorylation in HEK293 cells stably expressing ErbB4 and Fyn-V5 (Western blot); type: cell-based
Method: as §2
These alternatives were distinguished by applying PP2 (25 nM; Calbiochem, San Diego, Calif.) a relatively selective Src-family kinase inhibitor, to inhibit Fyn while ErbB4 signaling was stimulated with NRG1. […] Fyn was phosphorylated at a low level on Tyr420 under basal conditions. […] After NRG1 stimulation, an increase in Fyn Tyr420 phosphorylation was seen, even under conditions in which PP2 was used to inhibit p59 Fyn autophosphorylation. […] Thus, ErbB4 or an ErbB4 activated tyrosine kinase may phosphorylate Fyn on Tyr420 in response to NRG1 stimulation and activate the kinase directly.

ErbB4 [7] = test: ErbB4 tyrosine phosphorylation and kinase activity in CHO-K1 cells expressing ErbB4; type: cell-based
Method: The initial step of NRG1 signaling is activation of ErbB4 kinase activity and auto-phosphorylation on tyrosine residues. An increase in ErbB4 tyrosine phosphorylation and associated kinase activity was observed when CHO-K1 cells (ECACC Accession No. 85051005) expressing ErbB4 were exposed to NRG1 (recombinant human HRG-αEGF domain; R&D Systems, Minneapolis, Minn.) in serum free medium for 0-15 minutes. Following immunoprecipitation of ErbB4, kinase activity was measured using a peptide substrate. Maximum ErbB4 kinase activity was detected within 1 minute of NRG1 exposure but returned to the pre-stimulation level by 15 minutes.
Target sequence in this assay (Q15303 26-1308): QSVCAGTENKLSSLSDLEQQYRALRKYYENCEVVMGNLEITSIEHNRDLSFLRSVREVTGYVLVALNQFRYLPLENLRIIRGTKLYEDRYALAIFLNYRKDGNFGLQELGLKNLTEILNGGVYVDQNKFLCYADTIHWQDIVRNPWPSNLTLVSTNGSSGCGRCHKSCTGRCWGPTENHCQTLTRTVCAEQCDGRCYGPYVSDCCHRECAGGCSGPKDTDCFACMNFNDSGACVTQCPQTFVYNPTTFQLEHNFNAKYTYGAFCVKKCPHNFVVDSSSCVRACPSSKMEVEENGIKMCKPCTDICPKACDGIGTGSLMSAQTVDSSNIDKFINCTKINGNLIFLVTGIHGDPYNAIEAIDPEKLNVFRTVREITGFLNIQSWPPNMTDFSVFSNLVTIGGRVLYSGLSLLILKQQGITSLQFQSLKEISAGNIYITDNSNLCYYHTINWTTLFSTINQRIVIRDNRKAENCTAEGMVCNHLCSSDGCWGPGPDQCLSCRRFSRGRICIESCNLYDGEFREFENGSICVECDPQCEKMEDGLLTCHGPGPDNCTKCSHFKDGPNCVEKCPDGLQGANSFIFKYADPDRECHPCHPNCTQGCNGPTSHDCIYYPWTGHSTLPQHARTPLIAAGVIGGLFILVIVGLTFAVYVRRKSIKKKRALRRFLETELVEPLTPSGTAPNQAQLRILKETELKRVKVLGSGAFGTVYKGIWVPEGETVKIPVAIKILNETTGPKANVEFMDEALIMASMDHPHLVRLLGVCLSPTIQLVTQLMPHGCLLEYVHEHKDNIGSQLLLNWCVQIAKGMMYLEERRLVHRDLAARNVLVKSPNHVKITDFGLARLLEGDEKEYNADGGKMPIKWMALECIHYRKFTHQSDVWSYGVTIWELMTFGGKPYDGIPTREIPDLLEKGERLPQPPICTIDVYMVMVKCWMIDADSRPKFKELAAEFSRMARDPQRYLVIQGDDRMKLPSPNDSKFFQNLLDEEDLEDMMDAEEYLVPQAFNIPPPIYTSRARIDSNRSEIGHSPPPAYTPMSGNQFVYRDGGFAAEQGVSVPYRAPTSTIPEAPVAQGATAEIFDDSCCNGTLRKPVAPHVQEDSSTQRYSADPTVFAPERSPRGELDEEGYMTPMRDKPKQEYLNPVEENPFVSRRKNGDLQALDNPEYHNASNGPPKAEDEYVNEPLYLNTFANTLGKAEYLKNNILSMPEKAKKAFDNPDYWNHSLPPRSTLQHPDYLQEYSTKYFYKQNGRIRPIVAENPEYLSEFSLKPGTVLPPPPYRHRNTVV

Sequence of Fyn (P06241 whole entry, species assumed): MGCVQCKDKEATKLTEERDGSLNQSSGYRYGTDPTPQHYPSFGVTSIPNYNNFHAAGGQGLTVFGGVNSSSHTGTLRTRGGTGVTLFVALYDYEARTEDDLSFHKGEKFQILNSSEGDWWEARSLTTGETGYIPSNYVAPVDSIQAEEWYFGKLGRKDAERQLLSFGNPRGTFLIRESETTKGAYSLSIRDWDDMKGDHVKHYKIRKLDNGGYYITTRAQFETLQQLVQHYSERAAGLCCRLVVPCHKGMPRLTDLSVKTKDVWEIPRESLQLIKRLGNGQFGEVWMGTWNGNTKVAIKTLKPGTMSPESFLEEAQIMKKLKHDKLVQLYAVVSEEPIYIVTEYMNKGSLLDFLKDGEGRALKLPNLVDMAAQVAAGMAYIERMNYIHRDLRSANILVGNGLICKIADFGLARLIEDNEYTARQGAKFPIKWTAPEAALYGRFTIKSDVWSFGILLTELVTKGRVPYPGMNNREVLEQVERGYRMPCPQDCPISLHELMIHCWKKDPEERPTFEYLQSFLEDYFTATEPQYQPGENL
T1 sequence (Q15303 26-1308): as the sequence (Q15303 26-1308) above

- EC50 ([2]; 4 hours, 0-57.6 nM, no significant difference between the two cell lines, read-out: EC50, luciferase reporter induction): ~1 nM
- ErbB4 tyrosine phosphorylation (ErbB4 [4]): increased
B1: NRG1: recombinant human HRG-αEGF domain; R&D Systems; polypeptide growth factor Neuregulin 1 (protein)
chain: SHLVKCAEKEKTFCVNGGECFMVKDLSNPSRYLCKCQPGFTGARCTENVPMKVQNQEKAEELYQK
- NR2B Tyr1472 phosphorylation (NR2B): increase
- MAPK p44/42 Thr202/Tyr204 phosphorylation (MAPK p44/42): increase
- time of maximum Fyn kinase activity (Fyn [1]; after NRG1 stimulation): 7 min
- time of return of Fyn kinase activity to pre-stimulation levels (Fyn [1]; after NRG1 stimulation): ≤ 15 min
- time to increased Fyn kinase activity (Fyn [1]; after NRG1 stimulation): ≤ 5 min
- Fyn kinase activity (Fyn [1]; cells co-expressing Fyn and catalytically inactive ErbB4 D843A mutant): No increase
- Pyk2 Tyr402 phosphorylation (Pyk2): increased
- amplification of luciferase reporter induction in cells co-expressing ErbB4 and Fyn compared to cells expressing only ErbB4 ([2]; p<0.05): two-fold
- tyrosine phosphorylation of the NR2B subunit [3]: induced tyrosine phosphorylation
- Fyn/Src Tyr420 phosphorylation (Fyn/Src): increased
- ErbB4 tyrosine phosphorylation (ErbB4 [5]): tyrosine phosphorylation of ErbB4
- Fyn Tyr420 phosphorylation (Fyn [6]; 7.2 nM NRG1 for 10 minutes): phosphorylation of Fyn on Tyr420
- Fyn Tyr531 phosphorylation (Fyn [6]; 7.2 nM NRG1 for 10 minutes): no change
- Fyn Tyr420 phosphorylation after NRG1 stimulation with PP2 present (Fyn [6]; PP2 used to inhibit Fyn autophosphorylation): increase
- time of return of ErbB4 kinase activity to pre-stimulation level (ErbB4 [7]; after NRG1 exposure): ≤ 15 min
- time to maximum ErbB4 kinase activity (ErbB4 [7]; after NRG1 exposure): ≤ 1 min
- ErbB4 tyrosine phosphorylation and associated kinase activity (ErbB4 [7]; serum free medium, 0-15 minutes): increase
